Measurements published in the Immune Epitope Database (IEDB).
One block for each sequence: values may come before it.

What was measured:
HLA-A*32:01 = test: IEDB peptide-MHC binding, purified MHC/competitive/radioactivity; filed as Kd, often an IC50 or EC50 that approximates it; ≥ and ≤ were set here for values at or beyond the usual limits of such assays
HLA-A*26:01 = test: as above
HLA-A*24:02 [1] = test: IEDB peptide-MHC binding, purified MHC/competitive/fluorescence; ≥ and ≤ were set here for values at or beyond the usual limits of such assays
HLA-A*02:01 [2] = test: as above
HLA-B*44:02 = test: IEDB peptide-MHC binding, purified MHC/competitive/radioactivity; filed as Kd, often an IC50 or EC50 that approximates it; ≥ and ≤ were set here for values at or beyond the usual limits of such assays
HLA-B*44:03 = test: as above
HLA-A*31:01 = test: IEDB peptide-MHC binding, purified MHC/direct/fluorescence; filed as Kd, often an IC50 or EC50 that approximates it; ≥ and ≤ were set here for values at or beyond the usual limits of such assays
HLA-A*03:01 [3] = test: as above
HLA-A*30:01 = test: IEDB peptide-MHC binding, purified MHC/competitive/radioactivity; filed as Kd, often an IC50 or EC50 that approximates it; ≥ and ≤ were set here for values at or beyond the usual limits of such assays
HLA-B*53:01 = test: as above
HLA-B*15:01 = test: IEDB peptide-MHC binding, purified MHC/direct/fluorescence; filed as Kd, often an IC50 or EC50 that approximates it; ≥ and ≤ were set here for values at or beyond the usual limits of such assays; conditions: source organism: Haemophilus influenzae
HLA-A*02:01 [4] = test: as above; conditions: source organism: Haemophilus influenzae
HLA-B*35:01 = test: IEDB peptide-MHC binding, purified MHC/competitive/radioactivity; filed as Kd, often an IC50 or EC50 that approximates it; ≥ and ≤ were set here for values at or beyond the usual limits of such assays; conditions: source organism: Dengue virus 3 Martinique/1243/1999
HLA-A*01:01 = test: as above
HLA-A*29:02 = test: as above
HLA-A*30:02 = test: as above
HLA-A*24:02 [5] = test: as above; conditions: source organism: Mammarenavirus brazilense
HLA-A*23:01 = test: as above; conditions: source organism: Mammarenavirus brazilense
HLA-A*03:01 [6] = test: as above; conditions: source organism: Dengue virus 4 Philippines/H241/1956
HLA-A*02:06 = test: as above; conditions: source organism: Dengue virus 1 Brazil/97-11/1997
[7] = source organism: Dengue virus 4 Philippines/H241/1956
[8] = source organism: Zaire ebolavirus
[9] = source organism: Dengue virus 3 Martinique/1243/1999
[10] = source organism: Entamoeba histolytica HM-1:IMSS
[11] = source organism: Vaccinia virus WR
[12] = source organism: Dengue virus 1 Brazil/97-11/1997
[13] = source organism: Haemophilus influenzae
[14] = source organism: Mammarenavirus brazilense
[15] = source organism: Mammarenavirus tacaribeense
[16] = source organism: Sudan ebolavirus
[17] = source organism: Dengue virus 2 Jamaica/1409/1983
[18] = source organism: Vaccinia virus

Sequence: ETRAETWMSS
Kd (HLA-A*32:01; [7]): ≥ 47200 nM
Kd (HLA-A*26:01; [7]): 504 nM

Sequence: LGVIHNSTL
IC50 (HLA-A*24:02 [1]; [8]): 50900 nM
IC50 (HLA-A*02:01 [2]; [8]): 69100 nM

Sequence: MEDKTPVTTW
Kd (HLA-B*44:02; [9]): 115 nM
Kd (HLA-B*44:03; [9]): 180 nM

Sequence: WYKVFVPRR
Kd (HLA-A*31:01; [10]): 102 nM
Kd (HLA-A*03:01 [3]; [10]): ≥ 20000 nM

Sequence: AWRTATLIL
Kd (HLA-A*30:01; [9]): 592 nM

Sequence: VQLESRFTP
IC50 (HLA-A*24:02 [1]; [8]): 59200 nM
IC50 (HLA-A*02:01 [2]; [8]): ≥ 197000 nM

Sequence: GILPWTKIS
IC50 (HLA-A*24:02 [1]; [11]): ≥ 133000 nM
IC50 (HLA-A*02:01 [2]; [11]): 17200 nM

Sequence: VMEITAEWLW
Kd (HLA-B*53:01; source organism: Dengue virus 3 Singapore/8120/1995): 1030 nM

Sequence: LENIMWKQI
Kd (HLA-B*44:02; [12]): 115 nM
Kd (HLA-B*44:03; [12]): 204 nM

Sequence: VDNLTYVQL
IC50 (HLA-A*24:02 [1]; [8]): ≥ 117000 nM

Kd (HLA-B*15:01): 1280 nM
Kd (HLA-A*31:01; [13]): 2070 nM
Kd (HLA-A*03:01 [3]; [13]): 18000 nM
Kd (HLA-A*02:01 [4]): 3130 nM
Sequence: RMGVKSQLL

Sequence: YPKTKLTDW
Kd (HLA-B*53:01; [7]): 1440 nM

Sequence: LAILFEEVM
Kd (HLA-B*35:01): 33.1 nM

Sequence: MTTEDMLKVW
Kd (HLA-B*53:01; [7]): 1150 nM

Sequence: GERSRCYSLY
Kd (HLA-A*01:01; [14]): ≥ 26700 nM
Kd (HLA-A*32:01; [14]): ≥ 69900 nM
Kd (HLA-A*29:02; [14]): 14400 nM
Kd (HLA-A*30:02; [14]): 718 nM
Kd (HLA-A*24:02 [5]): ≥ 70300 nM
Kd (HLA-A*23:01): ≥ 70000 nM
Kd (HLA-A*26:01; [14]): ≥ 69700 nM
Kd (HLA-A*30:01; [14]): 5430 nM

Sequence: TARSNNRLA
Kd (HLA-A*30:01; [11]): 57.6 nM

Sequence: VNPEIDTTI
IC50 (HLA-A*24:02 [1]; [8]): 16100 nM
IC50 (HLA-A*02:01 [2]; [8]): ≥ 358000 nM

Sequence: RFRFRSVYG
Kd (HLA-A*30:01; [11]): 0.357 nM

Sequence: HTASGEHSL
Kd (HLA-A*01:01; [14]): ≥ 25100 nM
Kd (HLA-A*32:01; [14]): 11900 nM
Kd (HLA-A*29:02; [14]): ≥ 78900 nM
Kd (HLA-A*30:02; [14]): 5640 nM
Kd (HLA-A*26:01; [14]): 16500 nM
Kd (HLA-A*30:01; [14]): 8480 nM

Sequence: WFNYLFGGF
IC50 (HLA-A*24:02 [1]; source organism: Variola virus): 484 nM
IC50 (HLA-A*02:01 [2]; source organism: Variola virus): ≥ 104000 nM

Sequence: HIKNDFMIK
Kd (HLA-A*30:01; [11]): 1.6 nM

Sequence: HYDQKLGSY
Kd (HLA-A*01:01; [15]): 11000 nM
Kd (HLA-A*32:01; [15]): 19400 nM
Kd (HLA-A*29:02; [15]): ≥ 20300 nM
Kd (HLA-A*30:02; [15]): 89.8 nM
Kd (HLA-A*26:01; [15]): ≥ 36000 nM
Kd (HLA-A*30:01; [15]): 5540 nM

Sequence: ASKTINALV
Kd (HLA-A*30:01; [11]): 0.175 nM

Sequence: CLRRRVTRK
Kd (HLA-A*03:01 [6]): 2.7 nM
Kd (HLA-A*30:01; [7]): 3140 nM

Sequence: KSKFPRSML
Kd (HLA-A*30:01; [11]): 31.2 nM

Sequence: MEGLSLLQL
IC50 (HLA-A*24:02 [1]; [16]): 22300 nM
IC50 (HLA-A*02:01 [2]; [16]): ≥ 88900 nM

Sequence: MFLITENKIW
Kd (HLA-B*53:01; source organism: Dengue virus 1 Nauru/West Pac/1974): 8870 nM

Sequence: KVRTNAAMG
Kd (HLA-A*30:01; [9]): 11.3 nM

Sequence: KQWFLDLPL
Kd (HLA-A*32:01; [12]): 13.3 nM
Kd (HLA-A*02:06): 7.51 nM

Sequence: TVKDGRLGA
Kd (HLA-A*30:01; [11]): 240 nM

Sequence: REEEEAGVLW
Kd (HLA-B*44:02; [17]): 51.2 nM
Kd (HLA-B*44:03; [17]): 36.1 nM

Sequence: AVSRGSAKLQ
Kd (HLA-A*30:01; [9]): 1290 nM

Sequence: NIGNTKSNI
IC50 (HLA-A*24:02 [1]; [18]): ≥ 176000 nM
IC50 (HLA-A*02:01 [2]; [18]): ≥ 662000 nM

Sequence: SIRRNLALK
Kd (HLA-A*30:01; [11]): 12.4 nM
